B1: NGEP peptide P356 (L) (peptide)
peptide: WLLPAAVVGT
notes: Synthetic peptide, purity >95%; positions counted on the NGEP long form (L)
B2: NGEP peptide P846 (L) (peptide)
peptide: LLAIRLWAV
notes: as for B1
B3: NGEP peptide P143 (peptide)
peptide: FLDNIRAAGL
notes: Synthetic peptide, purity >95%; also called P143 (5)
B4: NGEP peptide P258 (L) (peptide)
peptide: ILFEILAKT
notes: as for B1
B5: MUC-1 (P1240) peptide (peptide)
peptide: SLSYTNPAV
notes: Synthetic control peptide, purity >95%; also called positive control peptide
B6: NGEP peptide P10 (S) (peptide)
peptide: GLGGPPLPTL
notes: Synthetic peptide, purity >95%; positions counted on the NGEP short form (S)
B7: NGEP peptide P113 (S) (peptide)
peptide: LVWEEDLKL
notes: as for B6
B8: NGEP peptide P170 (L) (peptide)
peptide: ALLSASWAV
notes: as for B1
B9: NGEP peptide P703 (L) (peptide)
peptide: GLFDEYLEMV
notes: Synthetic peptide, purity >95%; positions counted on the NGEP long form (L); also called NGEP-P703
B10: NGEP peptide P855 (L) (peptide)
peptide: IVFEHVVFSV
notes: as for B1
B11: NGEP peptide P215 (L) (peptide)
peptide: VLLEVVPDV
notes: as for B1

Target: T1, HLA-A2 molecules on T2 cells (human)
T1 construct: whole, on cells; MHC class I molecule on the surface of T2 cells
Test: T2 cell-binding assay, flow cytometry of HLA-A2 on T2 cells, peptide 25 µg/mL
From the text: The T2 binding values are expressed in mean fluorescence intensity. The values in parentheses are fold increases as compared with the negative control (CAP-7 peptide).

| Binder | T2 Binding (mean fluorescence intensity) [MFI] | fold increase compared with the negative control (CAP-7 peptide) [fold] |
| --- | --- | --- |
| B1 | 354 | 4 |
| B2 | 126 | 1.4 |
| B3 | 203 | 2.3 |
| B4 | 280 | 3.1 |
| B5 | 452 | 5.1 |
| B6 | 212 | 2.4 |
| B7 | 367 | 4.1 |
| B8 | 185 | 2.1 |
| B9 | 565 | 6.4 |
| B10 | 203 | 2.3 |
| B11 | 464 | 5.2 |

Reference: patent US20140287029A1 (US Dept. of Health and Human Services, published 2014)
